{"source": "patent US5371006", "tested_on": "NotI restriction endonuclease (Nocardia otitidis-caviarum)", "assay": "cleavage_in_vitro", "conditions": "endonuclease contamination test; 200 units, 4 h, 37 C, NEBuffer 3 + BSA", "data": [{"substance": "phiX174 RFI DNA", "values": [{"measurement": "activity (% converted to RF II)", "value": "< 5"}]}]}
